Results published in patent US12295987B2, “Method of using a GIP/GLP1 co-agonist for diabetes” (Eli Lilly and Company, priority 2018, dated 2025).
Numbered stars: 1 amine (or outer) side, 2 acyl side, 3 side chain; on linkers, the order of the positions; unused ones are H or OH. Square brackets hold non-standard residues; d marks the D form. Side chains are listed from the residue outwards. Ends that are not written are not given here. * marks the point of attachment. C20 diacid = O=C(O)CCCCCCCCCCCCCCCCCCC(=O)*; C18 diacid = O=C(O)CCCCCCCCCCCCCCCCC(=O)*; αMePhe(2-F) = C[C@](N)(Cc1ccccc1F)C(=O)O; γGlu = O=C(O)[C@H](CCC(=O)[*:2])N[*:1]; αMeL = CC(C)C[C@](C)(N)C(=O)O; αMeP = C[C@@]1(C(=O)O)CCCN1; AEEA = NCCOCCOCC(=O)O; Aib = CC(C)(N)C(=O)O

Biological target: T1, human gastric inhibitory peptide receptor (hGIPR) (Homo sapiens, UniProt P48546)
T1 construct: expressed in transfected cells; host or cells: HEK293
T1 sequence (P48546 22-466): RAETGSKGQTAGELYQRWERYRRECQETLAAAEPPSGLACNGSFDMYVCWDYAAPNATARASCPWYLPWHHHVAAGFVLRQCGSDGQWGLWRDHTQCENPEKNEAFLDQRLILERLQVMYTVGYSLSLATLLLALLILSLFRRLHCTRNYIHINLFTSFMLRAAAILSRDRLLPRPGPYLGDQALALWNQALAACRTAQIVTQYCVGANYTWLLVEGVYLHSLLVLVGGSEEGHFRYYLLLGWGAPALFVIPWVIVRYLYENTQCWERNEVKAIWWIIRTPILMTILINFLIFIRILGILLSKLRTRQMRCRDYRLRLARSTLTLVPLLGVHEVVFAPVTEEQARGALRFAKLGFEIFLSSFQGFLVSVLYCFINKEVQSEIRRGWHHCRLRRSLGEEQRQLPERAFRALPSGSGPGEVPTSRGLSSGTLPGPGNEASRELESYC
Assay: cAMP pharmacological functional assay in presence of 0.1% casein, hGIPR
Assay type: cell-based
Conditions: ratio of hGIPR to hGLP1R cAMP EC50 ratios
Method: Each receptor over-expressing cell line (20 μl) is treated with the test peptide in DMEM (Gibco Cat #31053) supplemented with 0.1% Casein (Sigma Cat #C4765), 250 μM IBMX, 1× GlutaMAX™ (Gibco Cat #35050), and 20 mM HEPES (HyClone Cat #SH30237.01) in a 20 μl assay volume. […] EC50 is the concentration of compound causing half-maximal simulation in a dose response curve. A relative EC50 value is derived by non-linear regression analysis using the percent maximal response vs. the concentration of peptide added, fitted to a four-parameter logistic equation.
Intracellular cAMP levels are determined by extrapolation using a standard curve. Dose response curves of compounds are plotted as the percentage of stimulation normalized to minimum (buffer only) and maximum (maximum concentration of each control ligand) values and analyzed using a four parameter non-linear regression fit with a variable slope (Genedata Screener 13). EC50 is the concentration of compound causing half-maximal simulation in a dose response curve.
EC50 is the concentration of compound causing half-maximal simulation in a dose response curve.

Substance	[hGIPR/hGLP1R] EC50 Ratio
Y-Aib-EGTFTSDYSILLDKIAK((2-[2-(2-Amino-ethoxy)-ethoxy]-acetyl)2-(γGlu)-CO—(CH2)18—CO2H)-Aib-AFIEYLIEGGPSSGAPPPS-NH2 (Y[Aib]EGTFTSDYSILLDKIAK([AEEA-AEEA-γGlu-C20 diacid])[Aib]AFIEYLIEGGPSSGAPPPS-NH2; N-terminus assumed; SMILES CC[C@H](C)[C@H](NC(=O)[C@H](CCCCN)NC(=O)[C@H](CC(=O)O)NC(=O)[C@H](CC(C)C)NC(=O)[C@H](CC(C)C)NC(=O)[C@@H](NC(=O)[C@H](CO)NC(=O)[C@H](Cc1ccc(O)cc1)NC(=O)[C@H](CC(=O)O)NC(=O)[C@H](CO)NC(=O)[C@@H](NC(=O)[C@H](Cc1ccccc1)NC(=O)[C@@H](NC(=O)CNC(=O)[C@H](CCC(=O)O)NC(=O)C(C)(C)NC(=O)[C@@H](N)Cc1ccc(O)cc1)[C@@H](C)O)[C@@H](C)O)[C@@H](C)CC)C(=O)N[C@@H](C)C(=O)N[C@@H](CCCCNC(=O)COCCOCCNC(=O)COCCOCCNC(=O)CC[C@H](NC(=O)CCCCCCCCCCCCCCCCCCC(=O)O)C(=O)O)C(=O)NC(C)(C)C(=O)N[C@@H](C)C(=O)N[C@@H](Cc1ccccc1)C(=O)N[C@H](C(=O)N[C@@H](CCC(=O)O)C(=O)N[C@@H](Cc1ccc(O)cc1)C(=O)N[C@@H](CC(C)C)C(=O)N[C@H](C(=O)N[C@@H](CCC(=O)O)C(=O)NCC(=O)NCC(=O)N1CCC[C@H]1C(=O)N[C@@H](CO)C(=O)N[C@@H](CO)C(=O)NCC(=O)N[C@@H](C)C(=O)N1CCC[C@H]1C(=O)N1CCC[C@H]1C(=O)N1CCC[C@H]1C(=O)N[C@@H](CO)C(N)=O)[C@@H](C)CC)[C@@H](C)CC) [Peptide 31]	6.44
Y-Aib-EGT-αMeF(2F)-TSDYSI-αMeL-LDKK((2-[2-(2-Amino-ethoxy)-ethoxy]-acetyl)2-(γGlu)-CO—(CH2)18—CO2H)AQ-Aib-EFI-(D-Glu)-YLIEGGPSSGAPPPS-NH2 (YXEGTXTSDYSIXLDKKAQXEFIXYLIEGGPSSGAPPPS; Aib, αMeF(2F), αMeL, D-Glu; lipidated K; amide; (2)..(2) Xaa at position 2 is Aib; (6)..(6) Xaa at position 6 is alpha-methyl-Phe(2F); (13)..(13) Xaa at position 13 is alpha-methyl-Leu; MOD_RES (17)..(17) Lys at position 17 is chemically modified by conjugation of the epsilon-amino group of the Lys side chain with (2-[2-(2-amino-ethoxy)-ethoxy]-acetyl)2-(gamma-Glu)-CO-(CH2)18- CO2H; (20)..(20) Xaa at position 20 is Aib; (24)..(24) Xaa at positi) [Peptide 212]	5.41
Y-Aib-EGT-αMeF(2F)-TSDLSI-αMeL-LD-Orn-K((2-[2-(2-Amino-ethoxy)-ethoxy]-acetyl)2-(γGlu)-CO—(CH2)16—CO2H)AQ-Aib-TFI-(D-Glu)-αMeY-LIEGGPSSGAPPPS-NH2 (YXEGTXTSDLSIXLDXKAQXTFIXXLIEGGPSSGAPPPS; Aib, Orn, αMe residues, lipidated Lys, D-Glu, amide; (2)..(2) Xaa at position 2 is Aib; (6)..(6) Xaa at position 6 is alpha-methyl-Phe(2F); (13)..(13) Xaa at position 13 is alpha-methyl-Leu; (16)..(16) Xaa at position 16 is Orn; MOD_RES (17)..(17) Lys at position 17 is chemically modified by conjugation of the epsilon-amino group of the Lys side chain with (2-[2-(2-amino-ethoxy)-ethoxy]-acetyl)2-(gamma-Glu)-CO-(CH2)16- CO2H; (20)..(20) Xaa at positi) [Peptide 243]	7.12
Y-αMePro-EGTFTSDYSILLDEK((2-[2-(2-Amino-ethoxy)-ethoxy]-acetyl)2-(γGlu)-CO—(CH2)16—CO2H)AQQAFIEYLIEGGPSSG-NH2 (Y[αMeP]EGTFTSDYSILLDEK([AEEA-AEEA-γGlu-C18 diacid])AQQAFIEYLIEGGPSSG-NH2; N-terminus assumed; SMILES CC[C@H](C)[C@H](NC(=O)[C@H](CC(C)C)NC(=O)[C@H](Cc1ccc(O)cc1)NC(=O)[C@H](CCC(=O)O)NC(=O)[C@@H](NC(=O)[C@H](Cc1ccccc1)NC(=O)[C@H](C)NC(=O)[C@H](CCC(N)=O)NC(=O)[C@H](CCC(N)=O)NC(=O)[C@H](C)NC(=O)[C@H](CCCCNC(=O)COCCOCCNC(=O)COCCOCCNC(=O)CC[C@H](NC(=O)CCCCCCCCCCCCCCCCC(=O)O)C(=O)O)NC(=O)[C@H](CCC(=O)O)NC(=O)[C@H](CC(=O)O)NC(=O)[C@H](CC(C)C)NC(=O)[C@H](CC(C)C)NC(=O)[C@@H](NC(=O)[C@H](CO)NC(=O)[C@H](Cc1ccc(O)cc1)NC(=O)[C@H](CC(=O)O)NC(=O)[C@H](CO)NC(=O)[C@@H](NC(=O)[C@H](Cc1ccccc1)NC(=O)[C@@H](NC(=O)CNC(=O)[C@H](CCC(=O)O)NC(=O)[C@]1(C)CCCN1C(=O)[C@@H](N)Cc1ccc(O)cc1)[C@@H](C)O)[C@@H](C)O)[C@@H](C)CC)[C@@H](C)CC)C(=O)N[C@@H](CCC(=O)O)C(=O)NCC(=O)NCC(=O)N1CCC[C@H]1C(=O)N[C@@H](CO)C(=O)N[C@@H](CO)C(=O)NCC(N)=O) [Peptide 197]	4.52
Y-Aib-EGT-αMeF(2F)-TSDHSI-αMeL-LD-Dab-K((2-[2-(2-Amino-ethoxy)-ethoxy]-acetyl)2-(γGlu)-CO—(CH2)18—CO2H)AQ-Aib-TFI-(D-Glu)-YLIEGGPSSGAPPPS-NH2 (YXEGTXTSDHSIXLDXKAQXTFIXYLIEGGPSSGAPPPS; Aib, αMeF(2F), αMeL, Dab, D-Glu; lipidated K; amide; (2)..(2) Xaa at position 2 is Aib; (6)..(6) Xaa at position 6 is alpha-methyl-Phe(2F); (13)..(13) Xaa at position 13 is alpha-methyl-Leu; (16)..(16) Xaa at position 16 is Dab; MOD_RES (17)..(17) Lys at position 17 is chemically modified by conjugation of the epsilon-amino group of the Lys side chain with (2-[2-(2-amino-ethoxy)-ethoxy]-acetyl)2-(gamma-Glu)-CO-(CH2)18- CO2H; (20)..(20) Xaa at positi) [Peptide 172]	2.63
Y-Aib-EGT-αMeF(2F)-TSDHSI-αMeL-LDEK((2-[2-(2-Amino-ethoxy)-ethoxy]-acetyl)2-(γGlu)-CO—(CH2)18—CO2H)AQ-Aib-TFI-(D-Glu)-YLIEGGPSSG-NH2 (Y[Aib]EGT[αMePhe(2-F)]TSDHSI[αMeL]LDEK([AEEA-AEEA-γGlu-C20 diacid])AQ[Aib]TFI[dE]YLIEGGPSSG-NH2; N-terminus assumed; SMILES CC[C@H](C)[C@H](NC(=O)[C@H](CC(C)C)NC(=O)[C@H](Cc1ccc(O)cc1)NC(=O)[C@@H](CCC(=O)O)NC(=O)[C@@H](NC(=O)[C@H](Cc1ccccc1)NC(=O)[C@@H](NC(=O)C(C)(C)NC(=O)[C@H](CCC(N)=O)NC(=O)[C@H](C)NC(=O)[C@H](CCCCNC(=O)COCCOCCNC(=O)COCCOCCNC(=O)CC[C@H](NC(=O)CCCCCCCCCCCCCCCCCCC(=O)O)C(=O)O)NC(=O)[C@H](CCC(=O)O)NC(=O)[C@H](CC(=O)O)NC(=O)[C@H](CC(C)C)NC(=O)[C@](C)(CC(C)C)NC(=O)[C@@H](NC(=O)[C@H](CO)NC(=O)[C@H](Cc1c[nH]cn1)NC(=O)[C@H](CC(=O)O)NC(=O)[C@H](CO)NC(=O)[C@@H](NC(=O)[C@](C)(Cc1ccccc1F)NC(=O)[C@@H](NC(=O)CNC(=O)[C@H](CCC(=O)O)NC(=O)C(C)(C)NC(=O)[C@@H](N)Cc1ccc(O)cc1)[C@@H](C)O)[C@@H](C)O)[C@@H](C)CC)[C@@H](C)O)[C@@H](C)CC)C(=O)N[C@@H](CCC(=O)O)C(=O)NCC(=O)NCC(=O)N1CCC[C@H]1C(=O)N[C@@H](CO)C(=O)N[C@@H](CO)C(=O)NCC(N)=O) [Peptide 167]	5.98
Y-Aib-EGT-αMeF(2F)-TSDYSI-αMeL-LDEK((2-[2-(2-Amino-ethoxy)-ethoxy]-acetyl)2-(γGlu)-CO—(CH2)18—CO2H)AQ-Aib-EFI-Aad-YLIEGGPSSGAPPPS-NH2 (YXEGTXTSDYSIXLDEKAQXEFIXYLIEGGPSSGAPPPS; Aib, Aad, αMeF(2F), αMeL; acylated lysine C20 diacid; amide; (2)..(2) Xaa at position 2 is Aib; (6)..(6) Xaa at position 6 is alpha-methyl-Phe(2F); (13)..(13) Xaa at position 13 is alpha-methyl-Leu; MOD_RES (17)..(17) Lys at position 17 is chemically modified by conjugation of the epsilon-amino group of the Lys side chain with (2-[2-(2-amino-ethoxy)-ethoxy]-acetyl)2-(gamma-Glu)-CO-(CH2)18- CO2H; (20)..(20) Xaa at position 20 is Aib; (24)..(24) Xaa at positi) [Peptide 147]	3.66
